Assay results as given in patent publication US6942852.

Target: CCR5 chemokine receptor (human) (UniProt P51681)
Experiment: cell-based or functional assay

Sequence of UniProt P51681 (P51681 whole entry): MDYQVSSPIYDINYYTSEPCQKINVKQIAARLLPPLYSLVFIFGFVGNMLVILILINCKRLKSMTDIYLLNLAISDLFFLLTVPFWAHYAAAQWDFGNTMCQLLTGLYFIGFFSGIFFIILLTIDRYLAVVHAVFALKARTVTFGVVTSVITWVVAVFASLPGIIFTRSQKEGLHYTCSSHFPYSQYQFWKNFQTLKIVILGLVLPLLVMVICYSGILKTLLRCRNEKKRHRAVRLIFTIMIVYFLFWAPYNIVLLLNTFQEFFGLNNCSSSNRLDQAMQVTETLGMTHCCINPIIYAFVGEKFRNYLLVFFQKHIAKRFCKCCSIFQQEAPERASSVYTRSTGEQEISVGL

Substance	inhibition of replication of dual-tropic HIV-1 89.6 in vitro (p24 ELISA) [%]	inhibition of replication of primary dual-tropic HIV-1 isolates from patients in vitro (p24 ELISA) [%]	potency at preventing infection of PBMC with R5 HIV-1 SF162, relative to AOP-RANTES [fold]
aminooxypentane-RANTES (2-68) (from UniProt P13501 25-91) (ligand)	50	80 to 90	–
n-nonanoyl-RANTES (2-68) (from UniProt P13501 25-91) (ligand)	–	–	3
